The values that follow come from publication PMC4601014 (Scientific Reports, 2015).

In general, Kd refers to a measure of binding affinity in units of concentration. Low values mean tighter binding, high ones weaker binding.

The experiment addresses His/S-ΔIBB importin-α1 (mouse, residues 70–529), wild-type (mouse, UniProt P52293 70-529). In words: ELISA. The settings on record: both partners purified. In general terms: In an ELISA, binding on a coated surface is turned into a signal by an enzyme label.

B1: GST-NP ncNLS, wild-type (peptide)
chain: ASQGTKRSYEQMET
notes: also called GST-tagged ncNLS; not shown: GST, N-terminal, kept
The molecule B1 gave a Kd of 1700 nM.
